T1: His-tagged CD70 protein extracellular domain (His-TNC-CD70) (human)
T1 construct: Expressed in 293 cells; also called human His-TNC-CD70 antigen; human CD70 antigen
T1 chain: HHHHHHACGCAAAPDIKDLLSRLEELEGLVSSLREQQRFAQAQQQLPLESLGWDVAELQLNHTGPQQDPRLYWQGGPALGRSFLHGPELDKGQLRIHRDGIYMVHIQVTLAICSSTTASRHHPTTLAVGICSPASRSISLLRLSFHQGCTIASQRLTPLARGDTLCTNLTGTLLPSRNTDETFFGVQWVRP


Molecular target: T1, His-tagged CD70 protein extracellular …
Experiment: SPR Biacore T200, antibody captured by anti-human Fc, His-TNC-CD70 in flow, 1:1 model
Protocol: The affinity of the chimeric and humanized antibodies of the present disclosure for the human CD70 antigen was tested using a Biacore instrument. The procedures are as follows:
The human Fc capture molecules were covalently coupled to a CM5 biosensor chip (CAT #BR-1005-30, GE) according to the method described in the instructions of the human Fc capture kit (CAT #BR-1008-39, GE) for affinity capture of the antibodies to be tested. Then, a human His-TNC-CD70 antigen (set forth in SEQ ID NO: 1) flowed through the surface of the chip, and the reaction signal was detected in real time using a Biacore T200 instrument to obtain association and dissociation curves. After the dissociation was completed for each cycle, the biochip was washed and regenerated with a regeneration solution configured in the human antibody capture kit (GE). Data were fitted using a 1:1 model.

Kd	koff	kon	Binder
0.0396 nM	0.000172 s⁻¹	4.36e+06 M⁻¹ s⁻¹	huB7010 (antibody, human IgG1, kappa, V domains shown, Humanized IgG1) VH: EIQLVQSGSELKKPGASVKVSCKTSGYTFTNYGMNWVRQAPGQGLEWMGWINTYTGEPTYADEFKGRFVFSLETSVSTAYLQISSLKAEDTAVYYCARGDSFTTEILRNWYFDVWGQGTTVTVSS VL: DIQMTQSPSSLSASVGDRVTITCGASENIYGALNWYQQKPGKVPKLLIYGATNLADGVPSRFSGSGSGRDYTLTISSLQPEDVATYYCQNVLSTPWTFGGGTKVEIKR
0.0371 nM	0.000182 s⁻¹	4.92e+06 M⁻¹ s⁻¹	huB7014 (antibody, human IgG1, kappa, V domains shown, Humanized IgG1) VH: EVQLVQSGSELKKPGASVKVSCKASGYTFTNYGMNWVRQAPGQGLEWMGWINTYTGEPTYADEFKGRFVFSLDTSVSTAYLQISSLKAEDTAVYYCARGDSFTTEILRNWYFDVWGQGTTVTVSS VL: DIQMTQSPSSLSASVGDRVTITCGASENIYGALNWYQQKPGKSPKLLIYGATNLADGVPSRFSGSGSGRDYTLTISSLQPEDVATYYCQNVLSTPWTFGGGTKVEIKR
0.0282 nM	0.000157 s⁻¹	5.58e+06 M⁻¹ s⁻¹	huB7004 (antibody, human IgG1, kappa, V domains shown, Humanized IgG1) VH: EIQLVQSGSELKKPGASVKVSCKTSGYTFTNYGMNWVRQAPGQGLEWMGWINTYTGEPTYADEFKGRFVFSLETSVSTAYLQISSLKAEDTAVYYCARGDSFTTEILRNWYFDVWGQGTTVTVSS VL: DIQMTQSPSSLSASVGDRVTITCGASENIYGALNWYQQKPGKVPKLLIYGATNLADGVPSRFSGSGSGTDFTLTISSLQPEDVATYYCQNVLSTPWTFGGGTKVEIKR
0.0442 nM	0.000195 s⁻¹	4.41e+06 M⁻¹ s⁻¹	huB7022 (antibody, human IgG1, kappa, V domains shown, Humanized IgG1) VH: EIQLVQSGSELKKPGASVKVSCKTSGYTFTNYGMNWVRQAPGQGLEWMGWINTYTGEPTYADEFKGRFVFSLETSVSTAYLQISSLKAEDTAVYYCARGDSFTTEILRNWYFDVWGQGTTVTVSS VL: DIQMTQSPSSLSASVGDRVTITCGASENIYGALNWYQRKPGKSPKLLIYGATNLADGVPSRFSGSGSGRQYTLTISSLQPEDVATYYCQNVLSTPWTFGGGTKVEIKR
0.0464 nM	0.000205 s⁻¹	4.41e+06 M⁻¹ s⁻¹	huB7024 (antibody, human IgG1, kappa, V domains shown, Humanized IgG1) VH: EIQLVQSGSELKKPGASVKVSCKTSGYTFTNYGMNWVRQAPGQGLKWMGWINTYTGEPTYADEFKGRFVFSLETSVSTAYLQINSLKAEDTAVYYCARGDSFTTEILRNWYFDVWGQGTTVTVSS VL: DIQMTQSPSSLSASVGDRVTITCGASENIYGALNWYQRKPGKSPKLLIYGATNLADGVPSRFSGSGSGRQYTLTISSLQPEDVATYYCQNVLSTPWTFGGGTKVEIKR
0.0257 nM	0.000154 s⁻¹	5.99e+06 M⁻¹ s⁻¹	huB7012 (antibody, human IgG1, kappa, V domains shown, Humanized IgG1) VH: EIQLVQSGSELKKPGASVKVSCKTSGYTFTNYGMNWVRQAPGQGLKWMGWINTYTGEPTYADEFKGRFVFSLETSVSTAYLQINSLKAEDTAVYYCARGDSFTTEILRNWYFDVWGQGTTVTVSS VL: DIQMTQSPSSLSASVGDRVTITCGASENIYGALNWYQQKPGKVPKLLIYGATNLADGVPSRFSGSGSGRDYTLTISSLQPEDVATYYCQNVLSTPWTFGGGTKVEIKR
0.0347 nM	0.000169 s⁻¹	4.87e+06 M⁻¹ s⁻¹	huB7008 (antibody, human IgG1, kappa, V domains shown, Humanized IgG1) VH: EVQLVQSGSELKKPGASVKVSCKASGYTFTNYGMNWVRQAPGQGLEWMGWINTYTGEPTYADEFKGRFVFSLDTSVSTAYLQISSLKAEDTAVYYCARGDSFTTEILRNWYFDVWGQGTTVTVSS VL: DIQMTQSPSSLSASVGDRVTITCGASENIYGALNWYQQKPGKVPKLLIYGATNLADGVPSRFSGSGSGRDYTLTISSLQPEDVATYYCQNVLSTPWTFGGGTKVEIKR
0.0464 nM	0.000191 s⁻¹	4.12e+06 M⁻¹ s⁻¹	huB7018 (antibody, human IgG1, kappa, V domains shown, Humanized IgG1) VH: EIQLVQSGSELKKPGASVKVSCKTSGYTFTNYGMNWVRQAPGQGLKWMGWINTYTGEPTYADEFKGRFVFSLETSVSTAYLQINSLKAEDTAVYYCARGDSFTTEILRNWYFDVWGQGTTVTVSS VL: DIQMTQSPSSLSASVGDRVTITCGASENIYGALNWYQQKPGKSPKLLIYGATNLADGVPSRFSGSGSGRDYTLTISSLQPEDVATYYCQNVLSTPWTFGGGTKVEIKR
0.0246 nM	0.000158 s⁻¹	6.41e+06 M⁻¹ s⁻¹	huB7006 (antibody, human IgG1, kappa, V domains shown, Humanized IgG1) VH: EIQLVQSGSELKKPGASVKVSCKTSGYTFTNYGMNWVRQAPGQGLKWMGWINTYTGEPTYADEFKGRFVFSLETSVSTAYLQINSLKAEDTAVYYCARGDSFTTEILRNWYFDVWGQGTTVTVSS VL: DIQMTQSPSSLSASVGDRVTITCGASENIYGALNWYQQKPGKVPKLLIYGATNLADGVPSRFSGSGSGTDFTLTISSLQPEDVATYYCQNVLSTPWTFGGGTKVEIKR
0.0276 nM	0.000159 s⁻¹	5.76e+06 M⁻¹ s⁻¹	huB7020 (antibody, human IgG1, kappa, V domains shown, Humanized IgG1) VH: EVQLVQSGSELKKPGASVKVSCKASGYTFTNYGMNWVRQAPGQGLEWMGWINTYTGEPTYADEFKGRFVFSLDTSVSTAYLQISSLKAEDTAVYYCARGDSFTTEILRNWYFDVWGQGTTVTVSS VL: DIQMTQSPSSLSASVGDRVTITCGASENIYGALNWYQRKPGKSPKLLIYGATNLADGVPSRFSGSGSGRQYTLTISSLQPEDVATYYCQNVLSTPWTFGGGTKVEIKR
0.0418 nM	0.000185 s⁻¹	4.43e+06 M⁻¹ s⁻¹	huB7016 (antibody, human IgG1, kappa, V domains shown, Humanized IgG1) VH: EIQLVQSGSELKKPGASVKVSCKTSGYTFTNYGMNWVRQAPGQGLEWMGWINTYTGEPTYADEFKGRFVFSLETSVSTAYLQISSLKAEDTAVYYCARGDSFTTEILRNWYFDVWGQGTTVTVSS VL: DIQMTQSPSSLSASVGDRVTITCGASENIYGALNWYQQKPGKSPKLLIYGATNLADGVPSRFSGSGSGRDYTLTISSLQPEDVATYYCQNVLSTPWTFGGGTKVEIKR
0.0335 nM	9.13e-05 s⁻¹	2.73e+06 M⁻¹ s⁻¹	huF4027 (antibody, human IgG1, kappa, V domains shown, Humanized IgG1) VH: EVQLVQSGAEVKKPGSSVKVSCKASGDTFPRYNMHWVRQAPGQGLEWMGAIFPGNGETSYNQNFKGRVTLTADKSTSTAYMELSSLRSEDTAVYYCARNSYYDYAWFTYWGQGTLVTVSS VL: DIVMTQSPDSLAVSLGERATINCRASKSVSSSGYSFMHWYQQKPGQPPKLLIYLASNLESGVPDRFSGSGSGTDFTLTISSLQAEDVAVYYCQHSREFPPTFGQGTKLEIKR
0.0403 nM	8.68e-05 s⁻¹	2.15e+06 M⁻¹ s⁻¹	huF4025 (antibody, human IgG1, kappa, V domains shown, Humanized IgG1) VH: EVQLVQSGAEVKKPGSSVKVSCKASGGTFSRYNMHWVRQAPGQGLEWMGAIFPGNGETSYNQNFKGRVTITADKSTSTAYMELSSLRSEDTAVYYCARNSYYDYAWFTYWGQGTLVTVSS VL: DIVMTQSPDSLAVSLGERATINCRASKSVSSSGYSFMHWYQQKPGQPPKLLIYLASNLESGVPDRFSGSGSGTDFTLTISSLQAEDVAVYYCQHSREFPPTFGQGTKLEIKR
0.0455 nM	0.000114 s⁻¹	2.51e+06 M⁻¹ s⁻¹	huF4009 (antibody, human IgG1, kappa, V domains shown, Humanized IgG1) VH: EVQLVQSGAEVKKPGSSVKVSCKASGDTFPRYNMHWVRQAPGQGLEWMGAIFPGTGETSYNQNFKGRVTLTADKSTSTAYMELSSLRSEDTAVYYCARNSYYDYAWFTYWGQGTLVTVSS VL: DIVMTQSPDSLAVSLGERATINCRASKSVSSSGYSFMHWYQQKPGQPPKLLIYLADNLESGVPDRFSGSGSGTDFTLTISSLQAEDVAVYYCQHSREFPPTFGQGTKLEIKR
